The results in this text go back to US20240398942A1, “USE OF ANTI-CD40 ANTIBODY” (CHIA TAI TIANQING PHARMACEUTICAL GROUP CO., LTD., priority 2021, published 2024).

Assay [1] deals with T1, Human CD40-his (Homo sapiens, UniProt P25942).
T1 construct: His; purchased Acro biosystems CD0-H5228
The assay can be described thus: Octet kinetics of humanized C1H1 antibodies. It is filed as binding. The conditions noted are these: Table 3, Octet; for Ka: humanized antibodies in cell supernatant, chimeric and benchmark 5 μg/mL. The procedure: After six days of culture in a shake flask, the cell supernatant containing the humanized antibodies huC1H1-V1 to huC1H1-V4 was harvested and the binding affinity of the antibodies to human CD40 was determined on an Octet system (Fortebio, Octet RED 96) according to the following procedures. Briefly, an anti-human IgG Fc capture (AHC) biosensor (from ForteBio) was pre-soaked in a 10 mM glycine solution (pH 1.5) for 3 s, and then soaked in a running buffer (PBST containing 0.5% w/v of BSA) for 3 s. The pre-soaking and soaking procedures were repeated 3 times. Then, the sensor was soaked in the cell supernatant containing the humanized anti-CD40 antibody, chimeric antibody C1H1 dissolved in HBS-EP^+ buffer at a concentration of 5 μg/mL, or the benchmark dissolved in HBS-EP^+ buffer at a concentration of 5 μg/mL for 120 s, and then soaked in the running buffer for 5 min. The new baseline was run in the running buffer for 180 s. The sensor was then soaked for 120 s in human CD40-his protein (Acro biosystems, Cat. No. CD0-H5228) 2-fold serially diluted from 40 nM in the running buffer and for 10 min in the running buffer […]. Finally, the sensor was pre-soaked in a 10 mM glycine solution (pH 1.5) for 3 s, and then soaked in the running buffer for 3 s. The pre-soaking and soaking procedures were repeated 3 times. The association and dissociation curves were fitted to a 1:1 Langmuir binding model using ForteBio Data Analysis 8.1.
(In general: In BLI a coated tip is dipped into the sample, and binding shifts an interference pattern.)

The target in assay [2] is human CD40-Fc protein (Homo sapiens, UniProt P25942). The assay can be described thus: Capture ELISA binding. The conditions noted are these: in words, FIGS. 1A-1C. On the procedure:
For capture ELISA, an affinity-purified goat anti-human IgG (F(ab′)2 fragment-specific, Jackson Immuno Research, Cat. No. 109-005-097) in PBS at a concentration of 2 μg/mL was immobilized on a 96-well plate at 100 μL/well and incubated overnight at 4° C. The plate was washed once with a washing buffer (PBS+0.05% v/v of Tween-20, PBST) and then blocked with 200 μL/well blocking buffer (PBST containing 5% w/v of skim milk) for 2 h at 37° C. The plate was washed 4 times, and the anti-CD40 antibody of the present application, BM1, BM2, and a negative control hIgG (human immunoglobulin for intravenous injection (pH 4), Hualan Biological Engineering Inc.) serially 5-fold diluted from 66.7 nM in a PBST containing 2.5% w/v of skim milk was added at 100 μL per well. The plate was incubated for 40 min at 37° C. and washed 4 times. A biotinylated human CD40-Fc protein (amino acid residues 21-193 of SEQ ID NO: 30 linked to the N terminus of amino acid residues 99-330 of SEQ ID NO: 28, dissolved in PBST containing 2.5% w/v of skim milk at a concentration of 1.15 nM) was added at 100 μL/well to a 96-well plate coated with the anti-CD40 antibody. The plate was incubated at 37° C. for 40 min and washed 4 times. An HRP-labeled streptavidin (diluted at 1:10000 in PBST, Jackson Immuno Research, Cat. No. 016-030-084) was added at 100 μL/well, and the plate was incubated at 37° C. for another 40 min. […]
On the technique in general: In an ELISA, binding on a coated surface is turned into a signal by an enzyme label.

Assay [3] deals with Cynomolgus monkey CD40-his. The assay can be described thus: Biacore surface plasmon resonance affinity and binding kinetics. The following applies: for Kd: dissociation rate. The source says:
(§1) The affinity and binding kinetics of the anti-CD40 antibody in the present application were characterized by a Biacore T200 system (GE Healthcare, Pittsburgh, PA, USA).
(§2) Briefly, a goat anti-human IgG (GE Healthcare, Cat. No. BR100839, human antibody capture kit) was covalently linked to a CM5 chip (GE Healthcare, Cat. No. BR100530, carboxymethylated dextran-coated chip) via the primary amine group using a standard amine coupling kit supplied by Biacore (GE Healthcare, Pittsburgh, PA, USA). Unreacted portions on the biosensor surface were blocked with ethanolamine. Then, the anti-CD40 antibody of the present application and two benchmark antibodies (BM1 (dacetuzumab, Genentech Inc., also referred to CD40-BM1, prepared in-house; the heavy and light chain amino acid sequences are set forth in SEQ ID NOs: 40 and 41, respectively) and BM2 (selicrelumab, Abgenix Inc., also referred to CD40-BM2, prepared in-house; the heavy and light chain amino acid sequences are set forth in SEQ ID NOS: 42 and 43, respectively)) at a concentration of 66.67 nM were directed through the chip at a flow rate of 10 μL/min. Then, serially diluted recombinant human CD40-his (Acro biosystems, Cat. No. CD0-H5228, serially 2-fold diluted from 80 nM in HBS-EP^+ buffer (supplied by Biacore)) or cynomolgus monkey CD40-his protein (Acro biosystems, Cat. No. CD0-C52H6, serially 2-fold diluted from 80 nM in HBS-EP^+ buffer (supplied by Biacore)) was directed through the chip at a flow rate of 30 μL/min. The antigen-antibody binding kinetics was tracked for 2 min and the dissociation kinetics was tracked for 10 min. The association and dissociation curves were fitted to a 1:1 Langmuir binding model using BIAcore evaluation software. KD, Ka, and Kd values were determined.
On the technique in general: In SPR one partner is held on a chip, and binding of the other changes the refractive index at the surface.

Assay [4] has as its target T1, Human CD40-his. The description is as above. The following applies: for Kd: dissociation rate.
Source text: as §1, §2

Where [5] appears, read: Table 2, Biacore, association rate.
The mark [6] stands for this setting: Table 5, Biacore, purified antibodies.

T1 sequence (P25942 21-277): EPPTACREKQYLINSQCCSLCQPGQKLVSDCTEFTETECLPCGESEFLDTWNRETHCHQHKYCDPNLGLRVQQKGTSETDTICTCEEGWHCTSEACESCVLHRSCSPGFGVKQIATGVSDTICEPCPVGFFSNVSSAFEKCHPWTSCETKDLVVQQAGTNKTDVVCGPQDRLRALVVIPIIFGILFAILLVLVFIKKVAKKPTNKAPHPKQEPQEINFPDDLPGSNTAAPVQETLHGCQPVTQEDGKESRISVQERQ
human CD40-Fc protein, sequence (P25942 21-193): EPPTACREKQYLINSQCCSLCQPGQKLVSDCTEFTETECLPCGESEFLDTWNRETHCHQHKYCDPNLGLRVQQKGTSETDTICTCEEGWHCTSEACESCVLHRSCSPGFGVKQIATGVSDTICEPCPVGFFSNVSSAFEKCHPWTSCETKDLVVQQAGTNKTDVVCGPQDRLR

B1: huC1H1-V3: humanized C1H1 anti-CD40 antibody, VH SEQ ID NO: 20 X1=A, VL SEQ ID NO: 24 X1=Y X2=Y, human IgG2/κ (antibody, V domains shown)
VH: EVQLVESGGGLVKPGGSLRLSCAASGFTFSNYGISWVRQAPGKGLEWVXSISSGGDNTYYPDNVKGRFTISRDNAKNSLYLQMNSLRAEDTAVYYCARAGEKAMDYWGQGTLVTVSS
VL: EIVLTQSPATLSLSPGERATLSCRASQTINNNLHWYQQKPGQAPRLLIXYASQSISGIPARFSGSGSGTDFTLTISSLEPEDFAVYXCQQFSSWPLTFGGGTKVEIK
modifications: not fully specified; variable positions X1=A; VL X1=Y X2=Y; IgG2/kappa constant; VH of huC1H1-V1 to huC1H1-V4; VARIANT 49 X can be A or S; VL of huC1H1-V1 to huC1H1-V4; VARIANT 49 X can be K or Y; VARIANT 87 X can be F or Y
With B1, the Kd in assay [1] (dissociation rate) stood at 0.00283 s⁻¹; in assay [1] (read-out: KD), 5.41 nM. In assay [1], this molecule registered a Ka of 523000 M⁻¹ s⁻¹.

B2: huC1H1-V4: humanized C1H1 anti-CD40 antibody, VH SEQ ID NO: 20 X1=S, VL SEQ ID NO: 24 X1=Y X2=Y, human IgG2/κ (antibody, V domains shown)
VH: B1 VH
VL: B1 VL
modifications: not fully specified; variable positions X1=S; VL X1=Y X2=Y; IgG2/kappa constant; VH of huC1H1-V1 to huC1H1-V4; VARIANT 49 X can be A or S; VL of huC1H1-V1 to huC1H1-V4; VARIANT 49 X can be K or Y; VARIANT 87 X can be F or Y
B2: the Kd turned out to be 0.00367 s⁻¹ in assay [1] (dissociation rate) and 8.66 nM in assay [1] (read-out: KD). In assay [1], this molecule displayed a Ka of 424000 M⁻¹ s⁻¹.

B3: Chimeric C1H1: C1H1 variable regions (SEQ ID NOs: 19, 23) on human IgG1 heavy chain and human κ light chain constant regions (antibody, V domains shown)
VH: EVKLVESGGGLVKPGASLKLSCAASGFTFSNYGISWVRQTSDKRLEWVASISSGGDNTYYPDNVKGRFTISRENAKNTLYLQMSSLKSEDTALYYCARAGEKAMDYWGQGTSVTVSS
VL: DIVLTQSPVTLSVTPGDSVSLSCRASQTINNNLHWYQQKSHESPRLLIKYASQSISGIPSRFSGSGSGTDFTLSINSVETEDFGIYFCQQFSSWPLTFGAGTKLELK
modifications: human IgG1 and kappa constant regions; VH of mouse and chimeric C1H1 antibodies; VL of mouse and chimeric C1H1 antibodies
B3: the “Binding ability to human CD40 in capture ELISA” value in assay [2] is “higher binding affinity and ability to human CD40”. Moreover, the Ka in assay [3] (setting [5]) was found to be 1.39e+06 M⁻¹ s⁻¹; in assay [3] (setting [6]) it was 2.54e+06 M⁻¹ s⁻¹; in assay [4] (setting [5]), 1.82e+06 M⁻¹ s⁻¹; in assay [4] (setting [6]), 2.51e+06 M⁻¹ s⁻¹; in assay [1] it was 1.47e+06 M⁻¹ s⁻¹. Also, the Kd is 0.001478 s⁻¹ in assay [3] (Table 2, Biacore); 0.002147 s⁻¹ in assay [3] (Table 5, Biacore); 0.001567 s⁻¹ in assay [4] (Table 2, Biacore); 0.002221 s⁻¹ in assay [4] (Table 5, Biacore); 0.000929 s⁻¹ in assay [1] (dissociation rate).

B4: Mouse C1H1: mouse anti-CD40 monoclonal antibody, VH SEQ ID NO: 19, VL SEQ ID NO: 23 (antibody, V domains shown)
VH: B3 VH
VL: B3 VL
modifications: VH of mouse and chimeric C1H1 antibodies; VL of mouse and chimeric C1H1 antibodies
B4: the Ka in assay [3] (setting [5]) is 1.39e+06 M⁻¹ s⁻¹; in assay [3] (setting [6]) it was 2.29e+06 M⁻¹ s⁻¹; in assay [4] (setting [5]), 1.79e+06 M⁻¹ s⁻¹; in assay [4] (setting [6]), 2.1e+06 M⁻¹ s⁻¹. For the same molecule, the Kd in assay [3] (Table 2, Biacore) came out at 0.001184 s⁻¹; in assay [3] (Table 5, Biacore) it was 0.000863 s⁻¹; in assay [4] (Table 2, Biacore) it was 0.001227 s⁻¹; in assay [4] (Table 5, Biacore) it was 0.000897 s⁻¹.
